According to the Immune Epitope Database (IEDB):

Tests used:
Experiment in all cases: IEDB peptide-MHC binding, purified MHC/competitive/radioactivity; filed as Kd, often an IC50 or EC50 that approximates it; ≥ and ≤ were set here for values at or beyond the usual limits of such assays
HLA-A*03:01 = target: HLA-A*03:01
HLA-A*11:01 = target: HLA-A*11:01
HLA-A*31:01 = target: HLA-A*31:01
HLA-A*33:01 = target: HLA-A*33:01
HLA-A*68:01 = target: HLA-A*68:01
HLA-A*02:06 = conditions: source organism: Homo sapiens
HLA-A*02:03 = conditions: source organism: Dengue virus 3 Martinique/1243/1999
[1] = source organism: SARS coronavirus Tor2
[2] = source organism: Vaccinia virus WR
[3] = source organism: Mammarenavirus guanaritoense
[4] = source organism: Mammarenavirus machupoense
[5] = source organism: Mammarenavirus lassaense
[6] = source organism: Mammarenavirus brazilense

Row | Sequence | Kd (HLA-A*03:01; [2]) | Kd (HLA-A*11:01; [2]) | Kd (HLA-A*31:01; [2]) | Kd (HLA-A*33:01; [2]) | Kd (HLA-A*68:01; [2]) | further results
1 | ALCEKALKY |  |  |  |  |  | Kd (HLA-A*03:01; [1]): 234 nM; Kd (HLA-A*11:01; [1]): 1440 nM; Kd (HLA-A*31:01; [1]): ≥ 65100 nM; Kd (HLA-A*33:01; [1]): ≥ 35800 nM; Kd (HLA-A*68:01; [1]): 13000 nM
2 | VVDTFISYNR | 2540 nM | 343 nM | 25.2 nM | 101 nM | 80.5 nM | 
3 | YLIHDNIMY | 10600 nM | 14900 nM | ≥ 77900 nM | ≥ 77700 nM | ≥ 26900 nM | 
4 | SSPPIPMSR | 7270 nM | 406 nM | 10400 nM | 15500 nM | 764 nM | 
5 | FVFDRPLPV |  |  |  |  |  | Kd (HLA-A*02:06): 2.38 nM
6 | FIDRGSIKIK | 495 nM | 708 nM | 2230 nM | 3960 nM | 860 nM | 
7 | RTMPNESRVK | 25.1 nM | 4.57 nM | 123 nM | ≥ 70000 nM | 1120 nM | 
8 | QITTDDLVK | ≥ 38900 nM | 803 nM | 207 nM | 3750 nM | 436 nM | 
9 | MFLTSVINR | 355 nM | 283 nM | 1.16 nM | 0.841 nM | 18.8 nM | 
10 | NTIDKSSPLY | 7970 nM | 1660 nM | ≥ 70000 nM | ≥ 70000 nM | 85.4 nM | 
11 | VTLADAGFMK |  |  |  |  |  | Kd (HLA-A*03:01; [1]): 33 nM; Kd (HLA-A*11:01; [1]): 3.92 nM; Kd (HLA-A*31:01; [1]): 1200 nM; Kd (HLA-A*33:01; [1]): 11700 nM; Kd (HLA-A*68:01; [1]): 135 nM
12 | IQVTISSYK |  |  |  |  |  | Kd (HLA-A*03:01; [1]): 15.4 nM; Kd (HLA-A*11:01; [1]): 10.8 nM; Kd (HLA-A*31:01; [1]): 139 nM; Kd (HLA-A*33:01; [1]): 7950 nM; Kd (HLA-A*68:01; [1]): 274 nM
13 | PIINTHSFY | ≥ 78000 nM | ≥ 77900 nM | ≥ 77900 nM | ≥ 77700 nM | ≥ 77700 nM | 
14 | EIKQGRVNK | 640 nM | 517 nM | ≥ 51300 nM | 3260 nM | 88.4 nM | 
15 | NVTSMEELAR | 5040 nM | 227 nM | 705 nM | 254 nM | 2.82 nM | 
16 | SVYAWERKK |  |  |  |  |  | Kd (HLA-A*03:01; [1]): 134 nM; Kd (HLA-A*11:01; [1]): 230 nM; Kd (HLA-A*31:01; [1]): 1940 nM; Kd (HLA-A*33:01; [1]): ≥ 38700 nM; Kd (HLA-A*68:01; [1]): 5320 nM
17 | AMDEFIQRYK |  |  |  |  |  | Kd (HLA-A*03:01; [1]): 39 nM; Kd (HLA-A*11:01; [1]): 59 nM; Kd (HLA-A*31:01; [1]): 221 nM; Kd (HLA-A*33:01; [1]): 13300 nM; Kd (HLA-A*68:01; [1]): 8300 nM

Row | Sequence | Kd (HLA-A*03:01; [2]) | Kd (HLA-A*11:01; [2]) | Kd (HLA-A*31:01; [2]) | Kd (HLA-A*33:01; [2]) | Kd (HLA-A*68:01; [2]) | further results
18 | KAEMQLKIDK | 3720 nM | 125 nM | 3270 nM | 19800 nM | ≥ 25200 nM | 
19 | IFFTTSLFLH |  |  |  |  |  | Kd (HLA-A*03:01; [3]): 1030 nM; Kd (HLA-A*11:01; [3]): 17600 nM; Kd (HLA-A*31:01; [3]): 1360 nM; Kd (HLA-A*33:01; [3]): 1040 nM; Kd (HLA-A*68:01; [3]): 3490 nM
20 | VAALDGTFQR | ≥ 34100 nM | 681 nM | 124 nM | 675 nM | 40.1 nM | 
21 | KQYDSTDFK | 61.8 nM | 33.5 nM | 70.9 nM | ≥ 25500 nM | 1860 nM | 
22 | STSLSEEFFH |  |  |  |  |  | Kd (HLA-A*03:01; [4]): ≥ 43100 nM; Kd (HLA-A*11:01; [4]): 4310 nM; Kd (HLA-A*31:01; [4]): 14700 nM; Kd (HLA-A*33:01; [4]): ≥ 64800 nM; Kd (HLA-A*68:01; [4]): 13200 nM
23 | LSLSNLDFR | ≥ 78000 nM | 349 nM | 21.7 nM | 675 nM | 300 nM | 
24 | TLGSFTWFPH |  |  |  |  |  | Kd (HLA-A*03:01; [5]): 428 nM; Kd (HLA-A*11:01; [5]): 4990 nM; Kd (HLA-A*31:01; [5]): 782 nM; Kd (HLA-A*33:01; [5]): 13400 nM; Kd (HLA-A*68:01; [5]): ≥ 25700 nM
25 | IFMRDWNSK | 11700 nM | 8210 nM | 8520 nM | 8940 nM | 2390 nM | 
26 | SNSKEIPSFR |  |  |  |  |  | Kd (HLA-A*03:01; [6]): ≥ 33300 nM; Kd (HLA-A*11:01; [6]): 1880 nM; Kd (HLA-A*31:01; [6]): 650 nM; Kd (HLA-A*33:01; [6]): 540 nM; Kd (HLA-A*68:01; [6]): 315 nM
27 | DARYCSEFIR | ≥ 70100 nM | ≥ 37200 nM | 1130 nM | 24.3 nM | 249 nM | 
28 | GSWATSSFR | 111 nM | 7.38 nM | 0.56 nM | 226 nM | 54.1 nM | 
29 | DVDIYDAVR | ≥ 53300 nM | ≥ 77900 nM | 14000 nM | 2280 nM | 179 nM | 
30 | FTQHLLNIR | ≥ 78000 nM | ≥ 77900 nM | ≥ 77900 nM | ≥ 77700 nM | ≥ 77700 nM | 
31 | TLIMIGSNA |  |  |  |  |  | Kd (HLA-A*02:03): 32 nM
32 | VSLLRSTSQK |  |  |  |  |  | Kd (HLA-A*03:01; [1]): 11.6 nM; Kd (HLA-A*11:01; [1]): 172 nM; Kd (HLA-A*31:01; [1]): 175 nM; Kd (HLA-A*33:01; [1]): 2540 nM; Kd (HLA-A*68:01; [1]): 6330 nM
33 | YITIQDRPR | ≥ 78000 nM | ≥ 44800 nM | 138 nM | 187 nM | 26.2 nM | 
